In one experiment the target is 14-3-3ε (UniProt P62258). Briefly: competitive FP, FITC-HSPB6 phosphopeptide tracer. The following applies: reference: unphosphorylated 18E6 peptide; sites T156.
The next experiment has as its target 14-3-3β (UniProt P31946). In words: competitive FP, FITC-HSPB6 phosphopeptide tracer. Particulars: reference: unphosphorylated 18E6 peptide; sites T156.
The target of a further experiment is 14-3-3γ (UniProt P61981). In words: competitive FP, FITC-HSPB6 phosphopeptide tracer. The following applies: reference: unphosphorylated 18E6 peptide; sites T156.
The target of another experiment is 14-3-3σ (UniProt P31947). In words: competitive FP, FITC-HSPB6 phosphopeptide tracer. The following applies: reference: unphosphorylated 18E6 peptide; sites T156.
A further experiment deals with 14-3-3τ (UniProt P27348). In words: competitive FP, FITC-HSPB6 phosphopeptide tracer. The following applies: reference: unphosphorylated 18E6 peptide; sites T156.
Another experiment has as its target 14-3-3η (UniProt Q04917). In words: competitive FP, FITC-HSPB6 phosphopeptide tracer. Particulars: reference: unphosphorylated 18E6 peptide; sites T156.
Another experiment addresses 14-3-3ζ (UniProt P63104). Briefly: competitive FP, FITC-HSPB6 phosphopeptide tracer. Particulars: reference: unphosphorylated 18E6 peptide; sites T156.
The target in experiment [1] is phosphorylated 14-3-3ζ-18E6 chimera (14-3-3ζ∆C-GGGG-18E6 PBM) (human | human papillomavirus type 18) (UniProt P63104). In words: crystal structure.

Consider “HPV18 E6 (18E6) (from UniProt P06463) p18E6 peptide”, for which the “binding against the reference” value with 14-3-3ε, with 14-3-3β, in the experiment with 14-3-3γ, with 14-3-3σ, with 14-3-3τ and in the experiment with 14-3-3η was “gained” throughout. In addition, the “binding against the reference” value with 14-3-3ζ is reported as “gained”.
In experiment [1], “phosphorylated 14-3-3ζ-18E6 chimera (14-3-3ζ∆C-GGGG-18E6 PBM) (from UniProt P63104 1-229)” yielded a stoichiometry N of 2.

One may read the stoichiometry N as the number of molecules, sites or subunits per partner or assembly.
